Laboratory results from patent US20030152514A1 (ABGENIX, published 2003).
Where “and” joins values, the source holds several entries; their conditions need not be identical. Identical values can stand only once.

How the values were obtained:
[1] = target: T1, MUC18-V5-His antigen (extracellular domain aa 1-559 of human MUC18 fused to V5-HIS) (human, UniProt P43121 24-559); assay: SPR (Biacore 3000), average of the seven measurements
[2] = target: T1, MUC18-V5-His antigen (extracellular …); assay: SPR (Biacore 3000), mAb captured on protein A, MUC18-V5-His in flow, 1:1 model; May 2001, chip I
[3] = target: T1, MUC18-V5-His antigen (extracellular …); assay: SPR (Biacore 3000), mAb captured on protein A, MUC18-V5-His in flow, 1:1 model; October 2001, chip II
[4] = target: T1, MUC18-V5-His antigen (extracellular …); assay: SPR (Biacore 3000), mAb captured on protein A, MUC18-V5-His in flow, 1:1 model; November 2001, chip III
[5] = target: T2, mouse MUC18 protein of normal (nude) mouse endothelial cells (mouse, UniProt Q8R2Y2 24-648); assay: immunoblot of nude mouse endothelial cell lysate (40 ug protein, 10% SDS-PAGE), anti-human IgG secondary, ECL
T2 construct: whole, on cells; Tested as cell lysate on SDS-PAGE immunoblot, not on intact cells; also called NME; NME2 cells
T2 sequence (looked up): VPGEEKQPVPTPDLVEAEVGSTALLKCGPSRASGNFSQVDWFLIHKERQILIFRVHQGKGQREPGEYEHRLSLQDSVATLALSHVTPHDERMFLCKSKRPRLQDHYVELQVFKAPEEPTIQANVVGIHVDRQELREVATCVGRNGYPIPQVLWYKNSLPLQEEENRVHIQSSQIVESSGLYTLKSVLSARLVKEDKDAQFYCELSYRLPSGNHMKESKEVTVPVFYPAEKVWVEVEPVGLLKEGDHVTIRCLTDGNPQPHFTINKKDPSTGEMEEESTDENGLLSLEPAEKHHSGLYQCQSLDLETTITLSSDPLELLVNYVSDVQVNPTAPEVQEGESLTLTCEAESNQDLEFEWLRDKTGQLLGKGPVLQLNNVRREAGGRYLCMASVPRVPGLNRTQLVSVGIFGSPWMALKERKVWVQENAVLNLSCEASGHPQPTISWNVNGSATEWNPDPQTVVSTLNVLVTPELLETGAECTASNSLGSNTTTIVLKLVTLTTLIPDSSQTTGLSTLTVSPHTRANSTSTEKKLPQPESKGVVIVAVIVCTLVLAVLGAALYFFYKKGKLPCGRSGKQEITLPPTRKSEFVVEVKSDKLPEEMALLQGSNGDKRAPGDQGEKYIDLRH
Experimental: (§1) After overnight incubation, the plates were washed two times in PBS, and scraped in 400 μl Triton lysis buffer containing a cocktail of protease inhibitors plus DTT. Following centrifugation, the protein concentration was determined using a kit from BioRad. 40 μg of protein was loaded onto a 10% SDS-PAGE and electrophoretically transferred to a 0.45 -micron nitrocellulose membrane (Millipore). The membrane was incubated in buffer containing anti-MUC18 antibody overnight, reacted with a conjugated secondary antibody (Anti-human IgG) for one hour and the proteins were subsequently detected by the ECL (Amersham Corp) method according to the manufactures protocol.

[6] = target: T3, human MUC18 expressed by human melanoma cells (A375-SM, TXM-13, WM-2664) (human, UniProt P43121 24-646); assay: immunoblot of melanoma cell lysates (40 ug protein, 10% SDS-PAGE, denatured MUC18), anti-human IgG secondary, ECL
T3 construct: whole, on cells; also called MCAM; Mel-CAM
Experimental: as §1

[7] = target: T1, MUC18-V5-His antigen (extracellular …); assay: SPR (Biacore 3000), mAb captured on protein A, MUC18-V5-His in flow, 1:1 model; May 2001, chip I; exponent printed without its minus sign
[8] = target: T1, MUC18-V5-His antigen (extracellular …); assay: SPR (Biacore 3000), mAb captured on protein A, MUC18-V5-His in flow, 1:1 model; October 2001, chip II; exponent printed without its minus sign
[9] = target: T1, MUC18-V5-His antigen (extracellular …); assay: SPR (Biacore 3000), mAb captured on protein A, MUC18-V5-His in flow, 1:1 model; November 2001, chip III; exponent printed without its minus sign

B1: anti-MUC18 antibody c3.19.1 (antibody, human IgG2, V domains shown)
VH: QVQLQESGPGLVKPSETLSLTCTVSGGSISSYYWSWIRQPPGKGLEWIGYIYYTWTSNYNPSLKSRVTISVDTSKNQFSLRLSSVTAADTAVYYCARDQGQWLLPDAFDIWGQGTMVTVSS
VL: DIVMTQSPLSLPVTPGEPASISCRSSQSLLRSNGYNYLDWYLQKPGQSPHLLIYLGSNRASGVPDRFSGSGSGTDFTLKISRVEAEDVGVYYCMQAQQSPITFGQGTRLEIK
notes: also called ABX-MA1; MAb 3.19.1
A Kd [1] of 0.61 nM, a koff [1] of 0.000375 s⁻¹ and a kon [1] of 627000 M⁻¹ s⁻¹ were found for B1 in this work. For the same binder, the Kd [2] was 0.67 nM, the kon [2] was 453000 M⁻¹ s⁻¹ and the Kd [3] was 0.57 nM and 0.69 nM. For the same binder, the kon [3] was 709000 M⁻¹ s⁻¹ and 575000 M⁻¹ s⁻¹, the Kd [4] was 0.46 nM and 0.62 nM and 0.65 nM and 0.59 nM and the kon [4] was 749000 M⁻¹ s⁻¹ and 625000 M⁻¹ s⁻¹ and 615000 M⁻¹ s⁻¹ and 661000 M⁻¹ s⁻¹. The binding result [5] was “no binding”, the binding result [6] was “binds” and the koff [7] was 0.000302 s⁻¹. For the same binder, the koff [8] was 0.000402 s⁻¹ and 0.000396 s⁻¹ and the koff [9] was 0.000347 s⁻¹ and 0.000385 s⁻¹ and 0.000402 s⁻¹ and 0.000389 s⁻¹.
